Source: the supplement of paper PMC12042874
± gives the uncertainty stated by the source.

Assay: amyloid nucleation score (Sup35N fusion, yeast selection) (log enrichment); library NNK2; higher = more nucleation; inactive = no reads after selection
Outline: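 Nucleation score: DiMSum log enrichment of output over input reads, centred on the mode score of non-aggregating sequences. Only sequences with at least 100 input reads were kept. Reads came from Illumina sequencing of plasmid inserts before and after 7 days of growth at 30°C without adenine and uracil, in psi-negative yeast expressing Sup35N fused to peptides of 20 random codons after 24 hours of induction with 100 μM copper sulfate.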

| Substance | amyloid nucleation score |
| --- | --- |
| IAICVNARE | 0.838 ± 0.35 |
| IAKGPGALYRSKMRWSGFVL | -0.817 ± 1 |
| IALFVGFLVDAKDEGIL | -0.419 ± 0.26 |
| IARLASQSYLDMVADAEDTG | 0.472 ± 0.49 |
| IAVSMNEMGY | inactive |
| ICCCFIWP | 7.044 ± 0.044 |
| ICGVKRKKNVILSYFISMEY | inactive |
| ICGYEACNNIGP | -1.12 ± 0.62 |
| ICLDLCNMKLEKGLS | -1.55 ± 1 |
| ICLHHDYGSGWWIIQSAWQI | 2.95 ± 0.076 |
| ICNALCLYSVNLLPGTLMGI | 7.49 ± 0.027 |
| ICSYVTVCVRLGFCKLNAMM | 0.504 ± 0.51 |
| ICTFYDTGLWVIYSVTRKAR | -0.057 ± 0.65 |
| ICTGVSTHIEPRPLTELCFR | 2.6 ± 0.073 |
| ICWPSTVDEGLPFYLWIYAM | 0.23 ± 0.39 |
| IDAELLGWFFPEDGFHFSAV | -1.32 ± 1.1 |
| IDGRDSFCQGGNRTCSKGCC | -0.303 ± 0.65 |
| IDLAFLLAVAVEPGWRTEV | -0.024 ± 1 |
| IDPKEMTGDRQWVSFTVRRR | 0.574 ± 0.24 |
| IDPLKGMLD | -2 ± 0.78 |
| IDYQKMLVSDCGD | 0.363 ± 0.46 |
| IELGFFSGTVIVVSYWEFTR | -1.02 ± 1 |
| IEMHDINYNP | -0.596 ± 0.29 |
| IESSEQSWT | -0.75 ± 0.36 |
| IETNTSGSPIVPKDDLYNSY | -0.672 ± 0.55 |

| Substance | amyloid nucleation score |
| --- | --- |
| IFAHSPLYMCGYADVYVHPT | inactive |
| IFCLPIKKRVMYNHGLTIFG | 0.461 ± 0.29 |
| IFDCCY | -1.82 ± 1.1 |
| IFDYSV | -0.874 ± 0.55 |
| IFEVRLPQELSSYSHFGGGC | 0.706 ± 0.74 |
| IFHSESALWRHRYMGYVMVR | -0.66 ± 0.45 |
| IFMAKFSEIPTGPVIIMFYL | inactive |
| IFMRVHLSMIVELKTHPDI | 3.2 ± 0.056 |
| IFSISNFAITVSNTLTV | 1.06 ± 0.32 |
| IFSLDFSGYVSLYLQKMNVL | 0.815 ± 0.15 |
| IFSTFCFLSAILFSIFPYEP | inactive |
| IFSTGNVKGNLTR | -0.491 ± 0.22 |
| IFVCNMFVSYNSGNSGWCSV | 7.675 ± 0.042 |
| IFVVCLGMDTVYLIGYYSPA | -1.25 ± 0.78 |
| IFVYY | -0.162 ± 0.4 |
| IGFYFLNRRKIFLASTGILM | inactive |
| IGNDFNANM | -0.754 ± 0.76 |
| IGSEDPRHFRSVCWSYNDTL | -0.789 ± 0.61 |
| IGSWSTA | 0.367 ± 0.36 |
| IGTADDKVSNRQGEPTEMA | 0.681 ± 0.55 |
| IGTVAPVDLTAYSRERLFRM | inactive |
| IGVRPCTMRC | 0.23 ± 0.29 |
| IGVSLTYKIQVSTRLFSTLY | 3.29 ± 0.15 |
| IGWGYRWVRWL | -0.415 ± 0.5 |
| IHIWGSLSIDIEFVCGRQAK | 1.99 ± 0.27 |

| Substance | amyloid nucleation score |
| --- | --- |
| IHNWIDSVERTALDMWERNA | 1.98 ± 0.14 |
| IIACLTVNYCTGRCATLMFP | 6.365 ± 0.036 |
| IIAEFDSGWSEAFDSCLGMS | -0.114 ± 0.54 |
| IIEIEGVCAFDWLRIFLILI | -1.27 ± 0.47 |
| IIFVFREYAINMKGVFK | 0.082 ± 1 |
| IIHDLSSFRKCSLHPDIGSS | -0.373 ± 0.37 |
| IIISYMFKHSWIKKGRHKLV | 0.597 ± 0.5 |
| IILFEYCEF | -0.613 ± 1.1 |
| IIQISSYSALWFRW | 0.724 ± 0.14 |
| IIQRRK | -0.157 ± 0.27 |
| IIVIRD | 0.005 ± 0.36 |
| IIVYVDDSPLYAVSRLQSYC | 0.758 ± 0.13 |
| IKFTLHCYDCVVFNC | 6.937 ± 0.056 |
| IKHVEDASGKRTDSRLFTRD | -0.545 ± 0.54 |
| IKISYTLMASEAVNTFS | -1.22 ± 1.1 |
| IKKIRYPRFLVVLN | inactive |
| IKLYCELCYFSNFWKIFTLR | inactive |
| IKTVIRCLDLVSFHRYGIGV | -0.401 ± 0.31 |
| IKYFY | -0.939 ± 0.49 |
| IKYRFGGLGPRPPNGRRFE | 0.635 ± 0.65 |
| IKYSVVNRHRVGLSVTAKW | -0.205 ± 0.37 |
| IKYYVTVWSLESDTAWVGGL | 0.196 ± 0.45 |
| ILDFKWNYYG | 3.05 ± 0.11 |
| ILFCLF | 8.143 ± 0.033 |
| ILICKILKTRMKVSRDMVMK | inactive |

| Substance | amyloid nucleation score |
| --- | --- |
| ILISLESSPISGMKCVLQRF | 2.85 ± 0.12 |
| ILKIAARIYLGLWTVFDWCG | 0.523 ± 0.27 |
| ILKRMLRCIYNFNISVWIIR | -0.578 ± 0.31 |
| ILKSKVSGPIYVSE | 0.848 ± 0.23 |
| ILLCCPVLFPINMKGSVCDK | 8.463 ± 0.044 |
| ILLVILLTRIVKRSFFYRGF | inactive |
| ILLYRNAYWYPGKSSICLTS | -1.06 ± 0.49 |
| ILQGADLKLVYFVNHRMERV | 1.24 ± 0.21 |
| ILQWEVSWLCKNHT | 0.683 ± 0.35 |
| ILSLRNR | -0.965 ± 1 |
| ILVREHFVSIKFLSR | -1.21 ± 1.1 |
| ILVSTIEGCLDYNLCFLAGL | 1.67 ± 0.12 |
| ILWCFRSVMA | -0.327 ± 0.28 |
| ILWGERRIDSRSWKIVARYF | -0.664 ± 1.1 |
| ILYGDVWLRFKRFWLSWMPA | -0.055 ± 0.55 |
| ILYGWGRMMCRPLPQGYWMV | 0.449 ± 0.28 |
| IMCEGSTPDFIIYSCMLLVY | -1.41 ± 0.42 |
| IMFASKHCSVGVMLKIGRTF | 0.209 ± 0.33 |
| IMGHYVYDVVR | -0.352 ± 0.36 |
| IMSNGDRNAYYVKLHES | 0.123 ± 0.33 |
| INFLNWFNLFDGYMFSLSAY | inactive |
| INGCFDHPTSIETFSEEMWM | -0.533 ± 0.55 |
| INHKQGCSTVWPVAKVCMLV | 0.201 ± 1 |
| INNQGFIRPDNDSCYRFWIS | inactive |
| INQFIFGTKRMSKNYVSMVR | inactive |

| Substance | amyloid nucleation score |
| --- | --- |
| INRKGRRI | 0.007 ± 0.79 |
| INSASESKGKGIILSTNGDS | -0.717 ± 0.39 |
| INSSRSFVYDFNTWNFQDVR | -0.089 ± 0.79 |
| INTCIWASLYLSMAHEYRI | -0.793 ± 0.62 |
| INWLKYLAFLILLDMFNSFG | 0.263 ± 0.64 |
| INYSFWRSHSSP | 4.42 ± 0.099 |
| IPEVQCIKFMSYSGCHIQAL | inactive |
| IPFIRMFVSFNNLQSISIPD | 5.534 ± 0.033 |
| IPFQEWNSMFIKLSELTVES | 3.97 ± 0.058 |
| IPKHLSSSVYAYYDLRLVFV | 0.08 ± 0.22 |
| IPKKSNLFLQMETMQLLFFD | 2.67 ± 0.17 |
| IPPSLCARKLRCYYVGAEG | 0.249 ± 0.64 |
| IPRIRR | 0.622 ± 0.66 |
| IPVDT | -0.668 ± 1.1 |
| IQARSYFVPTFSFLCTHSPT | 0.839 ± 0.48 |
| IQLDRSYSHNTSSLQGWHTM | 0.062 ± 0.74 |
| IQVRRITG | 0.089 ± 0.29 |
| IQYGEIGHIFCKVVISLNLE | 1.47 ± 0.2 |
| IQYPLFSCTYEGFFGDRYMA | -0.495 ± 0.55 |
| IRAKFI | 0.455 ± 0.39 |
| IRALDGHGFSSPWARFGPAG | 0.755 ± 0.4 |
| IRANGDKSVYM | 2.21 ± 0.076 |
| IRCCAWFDLVSESRSRGTWT | 5.43 ± 0.072 |
| IRKRCGINGMYRWIWVTWYL | -1.12 ± 0.33 |
| IRLFVRLNGHRWKRNW | -0.003 ± 0.33 |

| Substance | amyloid nucleation score |
| --- | --- |
| IRMAISLFNFGFSNMFMLKE | -1.94 ± 1.1 |
| IRQAWLYS | 0.615 ± 0.13 |
| IRRTDREQ | 0.053 ± 0.24 |
| IRRVSAQVCINWSIEWKSTR | 1.07 ± 0.33 |
| IRWMTHWKV | 0.834 ± 0.43 |
| IRYPIPWFY | inactive |
| IRYVMHWFISAVILTTPPCG | 0.355 ± 0.8 |
| ISFIDHYVY | inactive |
| ISFTVYGPRMVVWLQGIMFG | -0.86 ± 0.35 |
| ISFWYHSKTS | 0.318 ± 0.57 |
| ISGVLLWIRRFKHPICEEAW | 0.371 ± 0.56 |
| ISIFFVMLLMYRMFGYVECA | 0.856 ± 0.5 |
| ISLRMKEHVICSLVPFMSQI | 0.664 ± 0.22 |
| ISLSIWQPRNSDGWKQEPAP | 2.41 ± 0.24 |
| ISLSLFRNGPIRMAKGSAWM | 6.081 ± 0.036 |
| ISMTTVDPQMEEFGLRHVGV | 0.831 ± 0.31 |
| ISPIVEIGRASTVTLSDISV | 4.71 ± 0.054 |
| ISRGRRYRTPVEILGGHMRH | 0.917 ± 0.53 |
| ISRLWCHRHLCCPGWSMVRQ | -0.063 ± 0.74 |
| ISRWTSIVFKRLNGRDKEMK | 4.29 ± 0.088 |
| ISSEWEYHDT | inactive |
| ISSLLFVETELHSVFNLWWM | -0.277 ± 0.44 |
| ISSNKGFVEVAVSWVPRDVR | 0.744 ± 0.38 |
| ISVCITILSYVRNECWFRGD | -0.432 ± 0.24 |
| ISVHSQNTYVILELVRPSML | 8.388 ± 0.04 |

| Substance | amyloid nucleation score |
| --- | --- |
| ISVRVFNRNT | 3.15 ± 0.078 |
| ISVVNSGCCCITTHPLRTYR | 9.867 ± 0.079 |
| ISYSVKPLYFVSRVRTVNLG | 4.13 ± 0.078 |
| ITCTFFFSVSVLSTSVDSMY | 0.674 ± 0.57 |
| ITDVFSMWIF | -0.73 ± 0.5 |
| ITHCLTAFSVLWILVYVW | inactive |
| ITKAASTWDLLFFVRQVCRT | 0.353 ± 0.61 |
| ITKPLVALKNGYMVL | -0.177 ± 0.56 |
| ITLLGKVLSGVVKPSYPLAA | inactive |
| ITSNSVHIGITNYYRRELDQ | 5.32 ± 0.056 |
| ITWGFNVFMFVVPSWS | 8.67 ± 0.035 |
| ITYNIEISMRDF | 4.32 ± 0.11 |
| IVAGFNSKWLSTDFNRTENR | -0.517 ± 0.78 |
| IVCDWRTP | 0.614 ± 0.41 |
| IVCPFKT | -1.35 ± 0.78 |
| IVCSC | -0.194 ± 0.45 |
| IVFYFVFRILSYGGSTIPVG | -1.15 ± 0.64 |
| IVGTDSQHVLVLQIFCVCLR | -0.326 ± 1.1 |
| IVHYVFFWMGGILGNHASFP | -1.31 ± 1.1 |
| IVILDRFSPCSRTNE | 0.45 ± 0.8 |
| IVKFDVRVMCADLIGSHGQW | 7.02 ± 0.085 |
